Laboratory results from the DeepSol protein solubility set.

Test: soluble on expression in E. coli; label from the status in PepcDB or PDB records

Soluble on expression in E. coli, not soluble:
MGSDKIHHHHHHMRNLNEKMKDIFERSVEDIKERNQNLLRPEHILLQILYDENEATKVLKDLNVNVEEVITELEDYIDSQYGIYYGFSDQVYVSKELSYILELARKEARLFKQKDIGPLHFLLGLLRDGSTHAARVLKKYGVDYEKVLQTVKEHEEEYAAEQSPLTAFATDLTKLAKEGKVGPIIGRDREIERVIEILMRKTKNNPILIGDPGVGKTAIVEGLAQRIVEGKVPDPLKDVRILMVDLGRMIAGTKYRGEFEERLKSFLDEVMKQKEKTILFIDEIHTLVGAGAAEGAMDAANMLKPALARGEIRVIGATHWMSTENT, MGSDKIHHHHHHMRNQSKMPLVERLDAHAKSCPISLHVPGHKSGAIYPDAWQKFLKWDVTEITGMDDLHHPEDVILEAEELLAECYGSKKSYFLVNGTSGGSLAVIMATLKHGEKVLVPRDAHKSILHGIELAGGEPIFLTPATNKEVGVASGVTTELLEETLHNHPDIKLCIFTYPSYYGTTFNLHKCIQIAHDFGAVVFVDEAHGAHFLTSSEFPKSAVELGADVVVQSAHKTLPALTMGSYLHVVNDLPIFEKLPYYLQVFQTSSPSYLIMASLDAARKYAATYTAADVEAFWKMRARWIKWLTKNKFDVILPDDPLKIIVRKTGYTGYELQAIFEESSYFPELADESQVLLILPLIKKGIDFTPISRIHSPVKKEIAKEPYEMSAPFASGLALTYEEMHARATEFVLLDEATTRVSAETISLYPPGIPAIIRGESITEKHIRELKNIRTRHYQGGEKLAENYIRVFR, MGSDKIHHHHHHMRRADRLFQIVQILRHRRLTTAKQLAERLEVSSRTIYRDIQDLCLSGIPIEGEAGVGYLLRQEVNVPPLMFNEQELEAIQVGMRMVQAQGGHELASAAKQAMIKVEAVLPERLKAYQSLMFAPDFYSEGQLFSFLDLLRRTSREREYILLSYQDGKQSSSERQVRPLALYYWQGVWTLLAWCELRGDFRNFRVDRIVGVLPLGSHFQHTPGQEMPDYIAMMQAQYGEC, MGSDKIHHHHHHMRRIKIFDTTLRDGEQSPGASMSIEEKVEMALMLEDLGVDLIEAGFPVSSPVQFEAVKRVASAVQKPIVVGLARCVEKDIDAAYEALKDRPKDKRMIHVFIATSPIHRKYKLRMEKEEILERIRRYVGYAKQFFDLVEFSAEDASRTEVPFLIEAYKTAIEAGATTINVPDTVGYALPDEFGELIKTLREGVPGIENVDLSVHCHNDLGLAVANSLAAVQNGATQVEVTLNGIGERAGNCALEEFVMILKVRKDKLPYETGIKTELIYPASRLLTHITGLIPSRNKPIVGENVFLHESGIHQDGVLKHRETYEIMKPSDIGRSSETLVLGRHSGKHALRKKLETYGIKLDEETFQKVFEKFTELADRKKEVYDDDLFSIVSEVLREPINGYKLVHFHVHTGNTLLPTAAVVLQVGNEKREAAEAGNGPVDAIFKAIDKALGIQPKLEEYIIQAVGTGKNAQGEVKLTLRIDNELYSGRGVSTDIVEASAIAYINAINKYLIAKGLLRKNGGAE, MGSDKIHHHHHHMRRSKLTPTTPPMFKNLSVYRIQGDWHPAIAEAEASLQKFRFAECGATQAISAGWVEPRGEKHGPLVEAVGDQWMLTLCIQTKLLPAGVIKQHVDARIEQIKQREARRPGKKEVREIKEAVILELLPKAFSKKEHISVWIDRKNKLVAIDTASQSKCDTATSALVKTLDGLAIGLIQTQMSPGTCMSQWLMDGEAPDGFGVERECELKSSDESRSAVKYSRHVLDIDEVKQHLTHGKTPTQLAMTWTDRVSFTLTDAMALKKVTFLETPLMKKKAGGDDPFDANAAIVTGELSQLIPQLIEALGGELEFTGESGEGAREAKSEEREQETAEA, MGSDKIHHHHHHMRTLKVLHLASFDGNIGDNANHNGVRFLWKKYLPEYDFAITPLEMREYFWKWKSFDDGFADMVNEYDLFVCGGGNYFELWVQSSPTGTSVAIPLEVLRKIKTPCLFYALGLDPYMGAPDICIERFKRFLDYTLASPQFLVSVRNDGSLDSARRVLGGEYADRIHLMPDGGHFVQPEACTHYELTPGARTIGVNLAGDMLDFRFKSCNGKNLNDFKRSTAAVLCDIMRRMPDVNLIFYPHIHKDYSFLADFICGIDDHLLRRRITVAPYLHGQGAERKFFDLYRQCALNIGTRLHANICSVGLKTPSIGIVTHEQIHELYGYYGMAERALRFSDDNYAAKLDDLISDSLENTERISCRYSDVMSMVTKDAERFLGIMNCWLDSVV
